Measurements from patent US20260049138A1 (Chugai, published 2026).

Target: T1, CD3ε homodimer protein (human, UniProt P07766 23-126, limits assumed, sulfo-tag or biotin label in the ECL assays; amine-coupled to the chip in SPR)
T1 construct: also called human CD3ε homodimer protein; CD3 (CD3ε)
Assay: SPR Biacore T200; CD3ε homodimer on CM4 chip;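 also: Single-residue variant antibodies injected as analyte over CD3ε homodimer immobilized by amine coupling, run at 25 °C in HBS-EP+ buffer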

T1 sequence (P07766 23-126 limits assumed): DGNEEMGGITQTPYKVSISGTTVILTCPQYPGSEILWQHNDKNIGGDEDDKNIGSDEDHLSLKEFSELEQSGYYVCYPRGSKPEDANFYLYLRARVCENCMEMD

ratio of amounts bound Z=Y/X (altered form / CE115HA000) | Binder
0.94 | CE115HA000 A60E one-arm antibody (antibody, human IgG1, kappa, L234A L235A, N297A, name in Kabat numbering) heavy: QVQLVESGGGVVQPGRSLRLSCAASGFTFSNAWMHWVRQAPGKGLEWVAQIKAKSNNYATYYEESVKGRFTISRDDSKNSLYLQMNSLKTEDTAVYYCRYVHYGAYYGVDAWGQGTTVTVSSASTKGPSVFPLAPSSKSTSGGTAALGCLVKDYFPEPVTVSWNSGALTSGVHTFPAVLQSSGLYSLSSVVTVPSSSLGTQTYICNVNHKPSNTKVDKKVEPKSCDKTHTCPPCPAPEAAGGPSVFLFPPKPKDTLMISRTPEVTCVVVDVSHEDPEVKFNWYVDGVEVHNAKTKPREEQYASTYRVVSVLTVLHQDWLNGKEYKCKVSNKALPAPIEKTISKAKGQPREPQVYTLPPSRCELTKNQVSLSCAVKGFYPSDIAVEWESNGQPENNYKTTPPVLDSDGSFFLVSKLTVDKSRWQQGNVFSCSVMHEALHNHYTQKSLSLSPDYKDDDDK EPKSSDKTHTCPPCPAPELLGGPSVFLFPPKPKDTLMISRTPEVTCVVVDVSHEDPEVKFNWYVDGVEVHNAKTKPREEQYNSTYRVVSVLTVLHQDWLNGKEYKCKVSNKALPAPIEKTISKAKGQPREPQVCTLPPSRDELTKNQVSLWCLVKGFYPSDIAVEWESNGQPENNYKTTPPVLDSDGSFFLYSKLTVDKSRWQQGNVFSCSVMHEALHNRYTQKSLSLSP light: DIVMTQSPLSLPVTPGEPASISCRSSQSLVHSNRNTYLHWYQQKPGQAPRLLIYKVSNRFSGVPDRFSGSGSGTDFTLKISRVEAEDVGVYYCGQGTQVPYTFGQGTKLEIKRTVAAPSVFIFPPSDEQLKSGTASVVCLLNNFYPREAKVQWKVDNALQSGNSQESVTEQDSKDSTYSLSSTLTLSKADYEKHKVYACEVTHQGLSSPVTKSFNRGEC
1.43 | CE115HA000 A99F one-arm antibody (antibody, human IgG1, kappa, L234A L235A, N297A, name in Kabat numbering) heavy: QVQLVESGGGVVQPGRSLRLSCAASGFTFSNAWMHWVRQAPGKGLEWVAQIKAKSNNYATYYAESVKGRFTISRDDSKNSLYLQMNSLKTEDTAVYYCRYVHYGFYYGVDAWGQGTTVTVSSASTKGPSVFPLAPSSKSTSGGTAALGCLVKDYFPEPVTVSWNSGALTSGVHTFPAVLQSSGLYSLSSVVTVPSSSLGTQTYICNVNHKPSNTKVDKKVEPKSCDKTHTCPPCPAPEAAGGPSVFLFPPKPKDTLMISRTPEVTCVVVDVSHEDPEVKFNWYVDGVEVHNAKTKPREEQYASTYRVVSVLTVLHQDWLNGKEYKCKVSNKALPAPIEKTISKAKGQPREPQVYTLPPSRCELTKNQVSLSCAVKGFYPSDIAVEWESNGQPENNYKTTPPVLDSDGSFFLVSKLTVDKSRWQQGNVFSCSVMHEALHNHYTQKSLSLSPDYKDDDDK EPKSSDKTHTCPPCPAPELLGGPSVFLFPPKPKDTLMISRTPEVTCVVVDVSHEDPEVKFNWYVDGVEVHNAKTKPREEQYNSTYRVVSVLTVLHQDWLNGKEYKCKVSNKALPAPIEKTISKAKGQPREPQVCTLPPSRDELTKNQVSLWCLVKGFYPSDIAVEWESNGQPENNYKTTPPVLDSDGSFFLYSKLTVDKSRWQQGNVFSCSVMHEALHNRYTQKSLSLSP light: DIVMTQSPLSLPVTPGEPASISCRSSQSLVHSNRNTYLHWYQQKPGQAPRLLIYKVSNRFSGVPDRFSGSGSGTDFTLKISRVEAEDVGVYYCGQGTQVPYTFGQGTKLEIKRTVAAPSVFIFPPSDEQLKSGTASVVCLLNNFYPREAKVQWKVDNALQSGNSQESVTEQDSKDSTYSLSSTLTLSKADYEKHKVYACEVTHQGLSSPVTKSFNRGEC
0.28 | CE115HA000 A99D one-arm antibody (antibody, human IgG1, kappa, L234A L235A, N297A, name in Kabat numbering) heavy: QVQLVESGGGVVQPGRSLRLSCAASGFTFSNAWMHWVRQAPGKGLEWVAQIKAKSNNYATYYAESVKGRFTISRDDSKNSLYLQMNSLKTEDTAVYYCRYVHYGDYYGVDAWGQGTTVTVSSASTKGPSVFPLAPSSKSTSGGTAALGCLVKDYFPEPVTVSWNSGALTSGVHTFPAVLQSSGLYSLSSVVTVPSSSLGTQTYICNVNHKPSNTKVDKKVEPKSCDKTHTCPPCPAPEAAGGPSVFLFPPKPKDTLMISRTPEVTCVVVDVSHEDPEVKFNWYVDGVEVHNAKTKPREEQYASTYRVVSVLTVLHQDWLNGKEYKCKVSNKALPAPIEKTISKAKGQPREPQVYTLPPSRCELTKNQVSLSCAVKGFYPSDIAVEWESNGQPENNYKTTPPVLDSDGSFFLVSKLTVDKSRWQQGNVFSCSVMHEALHNHYTQKSLSLSPDYKDDDDK EPKSSDKTHTCPPCPAPELLGGPSVFLFPPKPKDTLMISRTPEVTCVVVDVSHEDPEVKFNWYVDGVEVHNAKTKPREEQYNSTYRVVSVLTVLHQDWLNGKEYKCKVSNKALPAPIEKTISKAKGQPREPQVCTLPPSRDELTKNQVSLWCLVKGFYPSDIAVEWESNGQPENNYKTTPPVLDSDGSFFLYSKLTVDKSRWQQGNVFSCSVMHEALHNRYTQKSLSLSP light: DIVMTQSPLSLPVTPGEPASISCRSSQSLVHSNRNTYLHWYQQKPGQAPRLLIYKVSNRFSGVPDRFSGSGSGTDFTLKISRVEAEDVGVYYCGQGTQVPYTFGQGTKLEIKRTVAAPSVFIFPPSDEQLKSGTASVVCLLNNFYPREAKVQWKVDNALQSGNSQESVTEQDSKDSTYSLSSTLTLSKADYEKHKVYACEVTHQGLSSPVTKSFNRGEC
1.48 | CE115HA000 A99K one-arm antibody (antibody, human IgG1, kappa, L234A L235A, N297A, name in Kabat numbering) heavy: QVQLVESGGGVVQPGRSLRLSCAASGFTFSNAWMHWVRQAPGKGLEWVAQIKAKSNNYATYYAESVKGRFTISRDDSKNSLYLQMNSLKTEDTAVYYCRYVHYGKYYGVDAWGQGTTVTVSSASTKGPSVFPLAPSSKSTSGGTAALGCLVKDYFPEPVTVSWNSGALTSGVHTFPAVLQSSGLYSLSSVVTVPSSSLGTQTYICNVNHKPSNTKVDKKVEPKSCDKTHTCPPCPAPEAAGGPSVFLFPPKPKDTLMISRTPEVTCVVVDVSHEDPEVKFNWYVDGVEVHNAKTKPREEQYASTYRVVSVLTVLHQDWLNGKEYKCKVSNKALPAPIEKTISKAKGQPREPQVYTLPPSRCELTKNQVSLSCAVKGFYPSDIAVEWESNGQPENNYKTTPPVLDSDGSFFLVSKLTVDKSRWQQGNVFSCSVMHEALHNHYTQKSLSLSPDYKDDDDK EPKSSDKTHTCPPCPAPELLGGPSVFLFPPKPKDTLMISRTPEVTCVVVDVSHEDPEVKFNWYVDGVEVHNAKTKPREEQYNSTYRVVSVLTVLHQDWLNGKEYKCKVSNKALPAPIEKTISKAKGQPREPQVCTLPPSRDELTKNQVSLWCLVKGFYPSDIAVEWESNGQPENNYKTTPPVLDSDGSFFLYSKLTVDKSRWQQGNVFSCSVMHEALHNRYTQKSLSLSP light: DIVMTQSPLSLPVTPGEPASISCRSSQSLVHSNRNTYLHWYQQKPGQAPRLLIYKVSNRFSGVPDRFSGSGSGTDFTLKISRVEAEDVGVYYCGQGTQVPYTFGQGTKLEIKRTVAAPSVFIFPPSDEQLKSGTASVVCLLNNFYPREAKVQWKVDNALQSGNSQESVTEQDSKDSTYSLSSTLTLSKADYEKHKVYACEVTHQGLSSPVTKSFNRGEC
